The source of these data is patent US20250289891A1 (AUTOLUS, published 2025).

In assay [1] the target is T1, Plate bound FcRH5 antigen (UniProt Q96RD9).
T1 sequence (looked up): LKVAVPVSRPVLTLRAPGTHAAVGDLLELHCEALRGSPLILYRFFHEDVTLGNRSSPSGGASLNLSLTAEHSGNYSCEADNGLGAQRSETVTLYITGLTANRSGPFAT
Description: cell-based or functional assay.

Assay [2] deals with T2, Recombinant purified FcRH5 Ig-8 domain (UniProt Q96RD9 743-850, limits assumed).
T2 construct: domain: Ig8
T2 sequence (looked up): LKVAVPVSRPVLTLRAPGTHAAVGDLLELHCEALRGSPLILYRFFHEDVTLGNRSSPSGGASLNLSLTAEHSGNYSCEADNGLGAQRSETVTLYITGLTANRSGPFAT
Description: SPR, Biacore 8k, VHH-mIgG2a Fc captured by anti-mouse kit on CM5, FcRH5 Ig8 as analyte (500 nM, 2-fold dilutions), 1:1 Langmuir fit, 25 C. As to the method: (§1) Recombinant anti-FcRH5 antibodies in mouse IgG2a format were captured on flow cell 2 on a Series S CM5 chip (GE Healthcare), functionalised with anti-mouse capture kit according to manufacturer's recommendations (GE Healthcare). Antibodies were captured to a density of 160 RU using a Biacore 8k instrument. HBS-P+ buffer was used as running buffer in all experimental conditions. Recombinant purified FcRH5 Ig-8 domain at known concentrations (500 nM with 2-fold serial dilutions) used as the ‘analyte’ and injected over the respective flow cells with 150s contact time and 500s dissociation at 30 μl/minute of flow rate with a constant temperature of 25° C. In each experiment, flow cell 1 was unmodified and used for reference subtraction. A ‘0 concentration’ sensogram of buffer alone was used as a double reference subtraction to factor for drift. Data were fit to a 1:1 Langmuir binding model. Since a capture system was used, a local maximal analytical response (Rmax) parameter was used for the data fitting in each case.

For assay [3], the target named is T2, Recombinant purified FcRH5 Ig-8 domain. Nature of the assay: SPR, Biacore 8k, VHH-mIgG2a Fc captured, FcRH5 Ig8 as analyte, 1:1 Langmuir fit, 25 C; footnote: kd outside instrument limits. As for the experimental part:
as §1

B1: Anti-FcRH5 VHH-CAR 66833 (VHH of AU60464), on Jurkat T cells (protein, not shown: large carriers)
chain: QVQLQQSGGGLVQPGGSLRLSCAAPGNIFRLNGTGWYRQAPGKQRELVAHITSGGNTDYADSVKGRFTISRDNAKNTVYLQMNSLKPEDTAVYYCNAIPFRLSWGQGTQVTVS
Turning to B1, in assay [1], the EC50 (µg/ml) of percentage Nur77 activation by plate bound FcRH5 antigen (µg/ml FcRH5 coating) amounted to 1.31 and the Nur77-mClover positive cells after 24 h 10 µg/ml (% upregulation) was 26.6%.

B2: Anti-FcRH5 VHH-CAR 66832 (VHH of AU60463), on Jurkat T cells (protein, not shown: large carriers)
chain: QVQLQESGGGLVQAGDSLRLSCAYSGRTFSSYAMGWFRQAPGKERVFVAAISRIGGVTTYAESVQGRFTISRDNAKNTLYLQMNALKPEDTAVYYCAAAGLVSISTTPNDYDYWGQGTQVTVS
In assay [1], B2 displayed an EC50 (µg/ml) of percentage Nur77 activation by plate bound FcRH5 antigen (µg/ml FcRH5 coating) of 2 and a Nur77-mClover positive cells after 24 h 10 µg/ml (% upregulation) of 38.4%.

B3: Anti-FcRH5 VHH-CAR 66842 (VHH of AU60370), on Jurkat T cells (protein, not shown: large carriers)
chain: QVQLQESGGGSVQPGGSLSLSCAASGFTFSNYAMSWVRQAPGKGPEWVAVINSDGGTASSAGSVRGRFTISRDNAKNTLYLQMNRLKPEDTAVYYCAANRGFCAGVRCLEYQYWGQGTQVTVS
In assay [1], B3 gave an EC50 (µg/ml) of percentage Nur77 activation by plate bound FcRH5 antigen (µg/ml FcRH5 coating) of 1.46 and a Nur77-mClover positive cells after 24 h 10 µg/ml (% upregulation) of 36.8%.

B4: Anti-FcRH5 VHH-Fc AU60390 (AbVec.aFcRH5.dAb-MIgG2a-Fc.Clone.C06) (Fc fusion)
chain: QVQLQQSGGGLVQAGDSLRLSCAASGRTFSNSTMGWFRQAPGKERKFVAVISWSGGTYAYAESVKGRFTISRDNAKNTVYLQMNSLKPEDTAVYYCAAARKGWSTRGDDYDYWGQGTQVTVS
notes: not shown: murine IgG2a Fc domain
With B4, the on-rate constant (kon) in assay [2] was 50000 M⁻¹ s⁻¹. For the same molecule, in assay [3], the Kd was under 200 pM and the dissociation rate constant (koff) was under 1e-05 s⁻¹.

B5: Anti-FcRH5 VHH-Fc AU60387 (AbVec.aFcRH5.dAb-MIgG2a-Fc.Clone.C01) (Fc fusion)
chain: QVQLQESGGGLVQAGGSLRLSCAASGRTFSTYGMGWFRQAPGKEREFVAAISRSGGATAYAASVKGRFTISRDDVKNTLYLQMNSLKPEDTAVYHCAGTRRAFSTGLRDYDYWGQGIQVTVS
notes: VHH fused to murine IgG2a Fc; not shown: murine IgG2a Fc domain
In the case of B5, the association rate constant (kon) in assay [2] stood at 48600 M⁻¹ s⁻¹. Moreover, in assay [3], the dissociation constant (Kd) is under 206 pM and the off-rate (koff) was under 1e-05 s⁻¹.

B6: Anti-FcRH5 VHH-CAR 66840 (VHH of AU60471), on Jurkat T cells (protein, not shown: large carriers)
chain: QVQLQESGGGLVQAGGSLRLSCAASGSIFSINAMGWYRQAPGKQRELVAFITSGGSTNYADSVKGRFTISRDNAKNTVYLQMNSLKPEDTAVYYCNALGGFVPSYGWGQGTQVTVS
Consider B6, for which, in assay [1], the EC50 (µg/ml) of percentage Nur77 activation by plate bound FcRH5 antigen (µg/ml FcRH5 coating) worked out at 1.62 and the Nur77-mClover positive cells after 24 h 10 µg/ml (% upregulation) was 40.7%.

B7: Anti-FcRH5 VHH-CAR 66843 (VHH of AU60382), on Jurkat T cells (protein, not shown: large carriers)
chain: QVQLQESGGGLVQAGGSLIVSCAASGRTFSINAMAWFRQAPGKEREFVAAIGGSGRVSSTSYADFVKGRFTISRDNAKNTVYLRMNNLEPEDTAVYYCAARRDYLPFPPESYDYWGQGTQVTVA
For B7, in assay [1], the EC50 (µg/ml) of percentage Nur77 activation by plate bound FcRH5 antigen (µg/ml FcRH5 coating) was found to be 1.97 and the Nur77-mClover positive cells after 24 h 10 µg/ml (% upregulation) amounted to 29.7%.
